# From publication doi:10.1101/2022.04.29.490010 (bioRxiv, 2022)
# Changes are numbered by the printed parent chain. Numbers in names are those of the source.
# B1: ENDOA1^WT (human Endophilin-A1, recombinant, GST tag cleaved) (natural protein, UniProt Q99962 1-352, looked up)
# chain: MSVAGLKKQFHKATQKVSEKVGGAEGTKLDDDFKEMERKVDVTSRAVMEIMTKTIEYLQPNPASRAKLSMINTMSKIRGQEKGPGYPQAEALLAEAMLKFGRELGDDCNFGPALGEVGEAMRELSEVKDSLDIEVKQNFIDPLQNLHDKDLREIQHHLKKLEGRRLDFDYKKKRQGKIPDEELRQALEKFDESKEIAESSMFNLLEMDIEQVSQLSALVQAQLEYHKQAVQILQQVTVRLEERIRQASSQPRREYQPKPRMSLEFPTGDSTQPNGGLSHTGTPKPSGVQMDQPCCRALYDFEPENEGELGFKEGDIITLTNQIDENWYEGMLHGHSGFFPINYVEILVALPH
# B2: ENDOA1^G276V (human Endophilin-A1 with the Parkinson's disease risk variant G276V, recombinant, GST tag cleaved) (natural protein, UniProt Q99962 1-352, looked up)
# chain: B1 chain with G276V
# B3: EndoA wild type (Drosophila Endophilin-A, GST tag cleaved) (natural protein, UniProt Q8T390 1-369, looked up)
# chain: MAFAGLKKQINKANQYMTEKMGGAEGTKLDMDFMEMERKTDVTVELVEELQLKTKEFLQPNPTARAKMAAVKGISKLSGQAKSNTYPQPEGLLAECMLTYGKKLGEDNSVFAQALVEFGEALKQMADVKYSLDDNIKQNFLEPLHHMQTKDLKEVMHHRKKLQGRRLDFDCKRRRQAKDDEIRGAEDKFGESLQLAQVGMFNLLENDTEHVSQLVTFAEALYDFHSQCADVLRGLQETLQEKRSEAESRPRNEFVPKTLLDLNLDGGGGGLNEDGTPSHISSSASPLPSPMRSPAKSMAVTPQRQQQPCCQALYDFEPENPGELAFKENDIITLLNRVDDNWFEGAVNGRTGYFPQSYVQVQVPLPNGN
# B4: EndoA^D265R (Drosophila Endophilin-A D265R, GST tag cleaved) (natural protein, UniProt Q8T390 1-369, looked up)
# chain: B3 chain with D265R
# B5: EndoA^D265A (Drosophila Endophilin-A D265A, GST tag cleaved) (natural protein, UniProt Q8T390 1-369, looked up)
# chain: B3 chain with D265A
# Experiments:
# [1] = target: the molecule itself; experiment: SEC
# [2] = target: the molecule itself; experiment: SEC-MALS
Protein,stoichiometry N [1],stoichiometry N [2]
B1,2,–
B2,2,–
B3,–,2
B4,–,2
B5,–,2
